Reference: article PMC3322552

Target: Caulobacter crescentus ScsC with a His tag, without signal sequence (Caulobacter crescentus)
Experiment: SEC

## Caulobacter crescentus ScsC with a His tag, without signal sequence (natural protein)
  stoichiometry N: 2
